Substrate in this series: O=c1[nH]c(=O)n([C@H]2C[C@H](O)[C@@H](COP(=O)(O)O)O2)cc1CO
In words: purified protein. Type of series: biochemical, Homo sapiens.

B1: 2′-Deoxynucleoside 5′-monophosphate N-glycosidase 1 (DNPH1) (Homo sapiens) (protein)
chain: AAAMVPGRSESWERGEPGRPALYFCGSIRGGREDRTLYERIVSRLRRFGTVLTEHVAAAELGARGEEAAGGDRLIHEQDLEWLQQADVVVAEVTQPSLGVGYELGRAVAFNKRILCLFRPQSGRVLSAMIRGAADGSRFQVWDYEEGEVEALLDRYFEADPPGQVAASPDPTT
On to B1, for which the Km is 6.3 ± 0.5 µM.

One may read the Km as the concentration of substrate that gives half-maximal velocity.
